According to the supplement of paper PMC12764529:
± gives the half width of the 95% confidence interval.

Tests used:
[1] = folding stability dG unfold from trypsin proteolysis; higher = more stable
Procedure, shortened: (§1)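 Sequencing followed digestion of designed mini-proteins with trypsin and chymotrypsin, each at 11 concentrations in threefold dilutions together with a no-protease condition. The mini-proteins were under 80 residues, had no cysteine, sat in a PA-tagged cDNA display construct, and were kept only if AlphaFold2 dimer inter-PAE was above 15. From the counts, Bayesian fitting gave K50, and unfolding free energy was derived against a sequence-predicted unfolded-state K50 and a shared folded-state K50, per protease or combined.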

[2] = folding stability dG unfold from chymotrypsin proteolysis; higher = more stable
Procedure, shortened: as §1

[3] = folding stability dG unfold (combined trypsin and chymotrypsin); higher = more stable
Procedure, shortened: as §1

For “SAGMGEAELAAARAANPDRPLVPVETYEIPLPPDVSLEEVEKELREKYPPGKVKVTADPATGTVTITISSAG [r5_694_JUSTAS]”, the “folding stability dG unfold” value [1] was -0.221 ± 0.14 kcal/mol, the “folding stability dG unfold” value [2] was 0.969 ± 0.04 kcal/mol and the “folding stability dG unfold” value [3] was 0.684 ± 0.15 kcal/mol.

With “SAGGSAMLLIKITIETKDGEKYEIVVEAESEEEALAALKEKARELFPELSEEDVKIVDIEVYELEESAGGSA [r15_220_TrROS_Hall]” the “folding stability dG unfold” value [1] was 4.58 ± 0.25 kcal/mol, the “folding stability dG unfold” value [2] was 4.25 ± 0.088 kcal/mol and the “folding stability dG unfold” value [3] was 4.29 ± 0.13 kcal/mol.

With “SAGMTPEEVAEELREKLGLKEVTIERDPAADTLTITVTLPSPGETKTAVVPASALTPEAIRELLLEVLSSAG [r5_896_JUSTAS]” the “folding stability dG unfold” value [1] was 2.77 ± 0.071 kcal/mol, the “folding stability dG unfold” value [2] was 2.4 ± 0.024 kcal/mol and the “folding stability dG unfold” value [3] was 2.58 ± 0.048 kcal/mol.

For “SAGGDPPDIYVQIEHKNGKTRTIPFDNMSIENIAEELRDHNYDEVKISVFRMGKPIETFKIKIPPGDSAGGS [r16_700_TrROS]”, the “folding stability dG unfold” value [1] was 3.7 ± 0.27 kcal/mol, the “folding stability dG unfold” value [2] was 2.95 ± 0.15 kcal/mol and the “folding stability dG unfold” value [3] was 3.08 ± 0.52 kcal/mol.

In the case of “SAGGPNIRIDINLMPHPGKPYIMVRIEIPNGYKREIMFNPDDGKISIEIRYPGKEEKIEFPLDDIKPISAGG [r13_328_TrROS]”, the “folding stability dG unfold” value [1] is reported as 3.48 ± 0.5 kcal/mol, the “folding stability dG unfold” value [2] is reported as 4.7 ± 0.3 kcal/mol and the “folding stability dG unfold” value [3] is reported as 4.42 ± 0.32 kcal/mol.

In the case of “SAGGSAGGSAGGGNPFLVRTEFFTLPDNTVIRRLAVVHSDGSLSVFPSLLPVPPNSLKLSAGGSAGGSAGGS [r10_280_TrMRF]”, the “folding stability dG unfold” value [1] is reported as 0.412 ± 0.041 kcal/mol, the “folding stability dG unfold” value [2] is reported as 1.18 ± 0.087 kcal/mol and the “folding stability dG unfold” value [3] is reported as 0.914 ± 0.053 kcal/mol.

In the case of “SADPSRGMTLTVETKELPGKGLLLVTITTSGTVEEALAYVEELAKELGAEIEILEVNENTIVVKLKVLKSAG [r14_172_JUSTAS]”, the “folding stability dG unfold” value [1] is reported as 1.97 ± 0.026 kcal/mol, the “folding stability dG unfold” value [2] is reported as 2.766 ± 0.014 kcal/mol and the “folding stability dG unfold” value [3] is reported as 2.49 ± 0.045 kcal/mol.

In the case of “SAGGSAGGSMGYLTEPDISVTRTPDGTVTVTTTNTTYDPSTGKKLSTTTTTTTVTLAPDEELLSAGGSAGGS [r12_1038_JUSTAS]”, the “folding stability dG unfold” value [1] is reported as 0.603 ± 0.056 kcal/mol, the “folding stability dG unfold” value [2] is reported as 0.628 ± 0.052 kcal/mol and the “folding stability dG unfold” value [3] is reported as 0.735 ± 0.11 kcal/mol.

For “SAGGSASPVFVATRISLPGGNASVDTSRYDPSSGTLTITVTLPDGTTTTITLTGPVSEYPADRLLLSAGGSA [r15_596_JUSTAS]”, the “folding stability dG unfold” value [1] was 1.04 ± 0.022 kcal/mol, the “folding stability dG unfold” value [2] was 1.16 ± 0.051 kcal/mol and the “folding stability dG unfold” value [3] was 1.13 ± 0.061 kcal/mol.

With “SAGGMKVEVVPGGGAVVVEIPFPPTPATARLVISFHPDGTVTADLEPHPELPAELRAKLVELARELLGSAGG [r13_139_TrMRF]” the “folding stability dG unfold” value [1] was 1.6 ± 0.02 kcal/mol, the “folding stability dG unfold” value [2] was 2.31 ± 0.032 kcal/mol and the “folding stability dG unfold” value [3] was 2.07 ± 0.048 kcal/mol.

In the case of “SAGGSAGGSAGSMQTEVTFERGPGRLTTTTTTKFPDNRWSTTTSTSPVPARPPLPPAPVLLSAGGSAGGSAG [r3_68_JUSTAS]”, the “folding stability dG unfold” value [1] is reported as -0.817 ± 0.52 kcal/mol, the “folding stability dG unfold” value [2] is reported as -0.709 ± 0.94 kcal/mol and the “folding stability dG unfold” value [3] is reported as -0.416 ± 0.22 kcal/mol.

For “SAGMKIKIKLENGEEIEIDKENPVIKIKNKETGEEVELVFDPENEDEIYIFNKKTKKLIAKFKITEIEPSAG [r5_761_TrROS_Hall]”, the “folding stability dG unfold” value [1] was 1.87 ± 0.092 kcal/mol, the “folding stability dG unfold” value [2] was 3.21 ± 0.084 kcal/mol and the “folding stability dG unfold” value [3] was 2.62 ± 0.34 kcal/mol.

For “SAGGMPLEHIAEITEVRTFPDGRKEIRLLVEDPEVAEEGHPELREEMAELLRRLFEEEGLEVRVVPGESAGG [r13_243_TrMRF]”, the “folding stability dG unfold” value [1] was 0.0715 ± 0.19 kcal/mol, the “folding stability dG unfold” value [2] was 0.187 ± 0.18 kcal/mol and the “folding stability dG unfold” value [3] was 0.2 ± 0.19 kcal/mol.

For “SAGMLGEEAIKDVKLELKEAPENEELVFEDTFPVGDKIARIRIVLKLPKNGGYEIKDIPIEVMAPEEAESAG [r5_96_TrMRF]”, the “folding stability dG unfold” value [1] was -0.469 ± 0.27 kcal/mol, the “folding stability dG unfold” value [2] was -0.177 ± 0.42 kcal/mol and the “folding stability dG unfold” value [3] was less than -1 kcal/mol.

In the case of “SAMKLTVSSSSPEEAQAQAEALKAQLRAELAAAGHPGAEVPVEITVTAVPPPVPVDVADPTSDRWSPTPSAG [r14_475_JUSTAS]”, the “folding stability dG unfold” value [1] is reported as 0.804 ± 0.033 kcal/mol, the “folding stability dG unfold” value [2] is reported as -0.694 ± 0.18 kcal/mol and the “folding stability dG unfold” value [3] is reported as 0.393 ± 0.07 kcal/mol.

In the case of “SAGGSAGGSMPDLRPAPVPALVIPLDLPLEEAIEKARELLDLPEDTEIPIAEFDPETGKIVIASAGGSAGGS [r12_815_TrMRF]”, the “folding stability dG unfold” value [1] is reported as 0.533 ± 0.024 kcal/mol, the “folding stability dG unfold” value [2] is reported as 1.94 ± 0.051 kcal/mol and the “folding stability dG unfold” value [3] is reported as 1.57 ± 0.039 kcal/mol.

For “SAGGIKIHVEREGNYYRIKIKWPNNNEISIPFDSPEDAEEQAEEQLQKQFPNMPPENVKIDEIEPYPPSAGG [r13_887_TrROS]”, the “folding stability dG unfold” value [1] was 0.173 ± 0.11 kcal/mol, the “folding stability dG unfold” value [2] was 0.504 ± 0.15 kcal/mol and the “folding stability dG unfold” value [3] was 0.469 ± 0.099 kcal/mol.
